Assay results: US20130090457A1 (Janssen / Centocor, published 2013)

What was measured:
cynomolgus TLR3 on cells = cynomolgus TLR3 on cells (cynomolgus, UniProt A0A2K5WT39 32-912); assay: cell-based or functional assay
[1] = target: full-length murine TLR3 on cells (mouse, UniProt Q99MB1 26-905); assay: cell-based or functional assay

Binder	IC50 in the cyno ISRE reporter assay (cynomolgus TLR3 on cells)	IC50 in the cyno NF-κB reporter assay (cynomolgus TLR3 on cells)	IC50 in the ISRE reporter gene assay, murine TLR3-transfected HEK293T, poly(I:C) [1]
mAb 15EVQ (antibody, human IgG4 S228P, kappa, F234A L235A) heavy: not shown light: DIQMTQSPSSLSASVGDRVTITCRASQSIGLYLAWYQQKPGKAPKLLIYAASSLQSGVPSRFSGSGSGTDFTLTISSLQPEDFATYYCQQGNTLSYTFGQGTKVEIKRTVAAPSVFIFPPSDEQLKSGTASVVCLLNNFYPREAKVQWKVDNALQSGNSQESVTEQDSKDSTYSLSSTLTLSKADYEKHKVYACEVTHQGLSSPVTKSFNRGEC	1.74 µg/mL	4.18 µg/mL	–
mAb 15 (antibody, human IgG4 S228P, kappa) heavy: not shown light: DIQMTQSPSSLSASVGDRVTITCRASQSIGLYLAWYQQKPGKAPKLLIYAASSLQSGVPSRFSGSGSGTDFTLTISSLQPEDFATYYCQQGNTLSYTFGQGTKVEIKRTVAAPSVFIFPPSDEQLKSGTASVVCLLNNFYPREAKVQWKVDNALQSGNSQESVTEQDSKDSTYSLSSTLTLSKADYEKHKVYACEVTHQGLSSPVTKSFNRGEC	–	–	22 µg/mL
mAb 5429 (antibody, mouse IgG1, kappa, V domains shown) VH: EVQLVASGGGLVKPGASLKLSCVASGFTFSDYWMAWVRQTPGKPMEYIGDIKSDGSKVNYAPSLKNRFTISRDNARTTLYLQMSNVRSEDTATYYCNRDIGPDWYFDFWGPGTMVTVSS VL: DIQMTQSPTSLSASLGETVTIECRASEDIYNGLAWYQQKPGKSPQLLIYDSNSLHTGVPSRFSGRGSGTQYSLRINSLQSEDVASYFCQQYYDYPLTFGSGTKLEIKR	–	–	0.5 µg/mL
mAb c1811 (antibody, mouse IgG1, kappa, V domains shown) VH: EVQLVASGGGLVKPGASLKLSCVASGFTFSDYWMAWVRQTPGKPMEYIGDIKSDGSKVNYAPSLKNRFTISRDNARTTLYLQMSNVRSEDTATYYCNRDIGPDWYFDFWGPGTMVTVSS VL: DIQMTQSPTSLSASLGETVTIECRASEDIYNGLAWYQQKPGKSPQLLIYDSNSLHTGVPSRFSGRGSGTQYSLRINSLQSEDVASYFCQQYYDYPLTFGSGTKLEIKR	–	–	0.7 µg/mL
